Laboratory results published in WO2010106812A1.

Target: soluble recombinant human IL-6 receptor (human) (UniProt P08887)
Assay: Biacore T100, biotinylated SR344 immobilised via streptavidin as model of membrane-type IL-6 receptor, dissociation at pH 7.4 and pH 5.8, 37 degrees C

soluble recombinant human IL-6 receptor (human), sequence (P08887 20-344, form in doubt): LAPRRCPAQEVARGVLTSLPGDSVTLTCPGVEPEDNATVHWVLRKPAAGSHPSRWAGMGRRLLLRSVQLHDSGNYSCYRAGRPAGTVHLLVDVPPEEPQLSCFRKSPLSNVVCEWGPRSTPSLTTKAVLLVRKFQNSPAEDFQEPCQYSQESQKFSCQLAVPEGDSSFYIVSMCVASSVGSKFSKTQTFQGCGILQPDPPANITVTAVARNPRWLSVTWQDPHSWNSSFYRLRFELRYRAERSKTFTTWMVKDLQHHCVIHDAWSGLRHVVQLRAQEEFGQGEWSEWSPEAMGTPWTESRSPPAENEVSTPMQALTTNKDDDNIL

fold improvement of the pH dependency of the dissociation rate (pH 5.8 against pH 7.4) over TOCILIZUMAB	fold increase of the pH dependence of the dissociation rate (pH 5.8 against pH 7.4) over TOCILIZUMAB	Binder
11 times		Fv3-M73 (antibody, V domains shown) VH: QVQLQESGPGLVKPSETLSLTCAVSGHSISHDHAWSWVRQPPGEGLEWIGFISYSGITNYNPTLQGRVTISRDNSKNTLYLQMNSLRAEDTAVYYCARSLARTTAMDYWGEGTLVTVSS VL: DIQMTQSPSSLSASVGDSVTITCQASRDISSHLNWYQQKPGKAPELLIYYGSHLLSGVPSRFSGSGSGTDFTFTISSLEAEDAATYYCGQGNRLPYTFGQGTKVEIER
	2.6 times	H3pI/L73 (antibody, human IgG1, kappa, V domains shown) VH: QVQLQESGPGLVKPSETLSLTCAVSGHSISHDHAHSWVRQPPGEGLEWIGYISYSGITNYNPSLKGRVTISRDTSKNQFSLKLSSVTAADTAAYYCARSLARTTAMDYWGEGTLVTVSS VL: DIQMTQSPSSLSASVGDSVTITCQASQHISSHLNWYQQKPGKAPELLIYYGSHLHSGVPSRFSGSGSGTDFTFTISSLEAEDAATYYCGQGNRLPYTFGQGTKVEIER
10 times		Fv4-M73 (antibody, V domains shown) VH: QVQLQESGPGLVKPSETLSLTCAVSGHSISHDHAWSWVRQPPGEGLEWIGFISYSGITNYNPSLQGRVTISRDNSKNTLYLQMNSLRAEDTAVYYCARSLARTTAMDYWGEGTLVTVSS VL: DIQMTQSPSSLSASVGDSVTITCQASTDISSHLNWYQQKPGKAPELLIYYGSHLLSGVPSRFSGSGSGTDFTFTISSLEAEDAATYYCGQGNRLPYTFGQGTKVEIER
